{"source": "patent US20260055186A1", "target": "human CD8 on human T cells (human) (UniProt P01732)", "sequence (P01732 22-235)": "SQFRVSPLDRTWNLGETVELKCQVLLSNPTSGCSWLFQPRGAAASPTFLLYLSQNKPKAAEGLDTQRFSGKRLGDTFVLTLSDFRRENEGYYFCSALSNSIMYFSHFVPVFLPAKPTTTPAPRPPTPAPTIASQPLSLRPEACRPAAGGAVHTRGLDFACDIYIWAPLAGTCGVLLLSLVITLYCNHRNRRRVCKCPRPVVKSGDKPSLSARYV", "test": "cell-based or functional assay", "data": [{"substance": "51.1 (antibody)", "values": [{"measurement": "tumor cell survival, SK-MEL-5 with MART-1 T cells", "result": 2, "unit": "fold"}]}, {"substance": "SK1 (antibody)", "values": [{"measurement": "tumor cell survival, SK-MEL-5 with MART-1 T cells", "result": 2, "unit": "fold"}]}]}
